# Measurements taken from US20240327815A1 (Zymeworks, published 2024).
# B1: Etesevimab (antibody, V domains shown)
# VH: EVQLVESGGGLVQPGGSLRLSCAASGFTVSSNYMSWVRQAPGKGLEWVSVIYSGGSTFYADSVKGRFTISRDNSMNTLFLQMNSLRAEDTAVYYCARVLPMYGDYLDYWGQGTLVTVSS
# VL: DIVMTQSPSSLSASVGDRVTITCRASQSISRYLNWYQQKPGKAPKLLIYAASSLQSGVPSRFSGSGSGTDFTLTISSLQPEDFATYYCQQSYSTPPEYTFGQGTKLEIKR
# B2: REGN10933 (Casirivimab) (antibody, V domains shown)
# VH: QVQLVESGGGLVKPGGSLRLSCAASGFTFSDYYMSWIRQAPGKGLEWVSYITYSGSTIYYADSVKGRFTISRDNAKSSLYLQMNSLRAEDTAVYYCARDRGTTMVPFDYWGQGTLVTVSS
# VL: DIQMTQSPSSLSASVGDRVTITCQASQDITNYLNWYQQKPGKAPKLLIYAASNLETGVPSRFSGSGSGTDFTFTISGLQPEDIATYYCQQYDNLPLTFGGGTKVEIKR
# B3: REGN10987 (Imdevimab) (antibody, V domains shown)
# VH: QVQLVESGGGVVQPGRSLRLSCAASGFTFSNYAMYWVRQAPGKGLEWVAVISYDGSNKYYADSVKGRFTISRDNSKNTLYLQMNSLRTEDTAVYYCASGSDYGDYLLVYWGQGTLVTVSS
# VL: QSALTQPASVSGSPGQSITISCTGTSSDVGGYNYVSWYQQHPGKAPKLMIYDVSKRPSGVSNRFSGSKSGNTASLTISGLQSEDEADYYCNSLTSISTWVFGGGTKLTVLR
# B4: Bamlanivimab (antibody, V domains shown)
# VH: QVQLVQSGAEVKKPGSSVKVSCKASGGTFSNYAISWVRQAPGQGLEWMGRIIPILGIANYAQKFQGRVTITADKSTSTAYMELSSLRSEDTAVYYCARGYYEARHYYYYYAMDVWGQGTAVTVSS
# VL: not shown
# Key:
# [1] = molecular target: WT SARS-CoV-2 spike protein, plate-coated (MSD V-Plex) (SARS-CoV-2, UniProt P0DTC2 14-1208); assay: MSD competition vs labelled ACE2
# [2] = molecular target: T1, full length wild type SARS-CoV-2 spike glycoprotein on pseudotyped lentivirus (SARS-CoV-2, UniProt P0DTC2 14-1273); assay: cell-based or functional assay
# [3] = molecular target: T1, full length wild type SARS-CoV-2 spike …; assay: cell-based or functional assay; remark: listed apart in the source
Binder,IC50 [1] [nM],"Pseudovirus Neutralization (IC50, nM) [2] [nM]","%-inhibition EC50 (M), pseudovirus neutralization [3] [M]","RLU EC50 (M), pseudovirus neutralization [3] [M]",Bmax (% inhibition) [3] [%]
B1,0.51,,,,
B2,,0.05,1.1e-10,1e-10,
B3,,4.76,2.9e-09,2.9e-09,116
B4,,2.29,,,100
